Test results reported in PMC6899756, “Identification of amino acid residues of nerve growth factor important for neurite outgrowth in human dorsal root ganglion neurons” (The European Journal of Neuroscience, 2019).

Tests used:
[1] = target: T1, tropomyosin-related kinase A (TrkA) receptor (human, UniProt P04629-2 33-790, phosphotyrosine at 490 (Y490) and at 785 (Y785) after treatment of the cells with NGF); test: cell-based or functional assay
[2] = target: T1, tropomyosin-related kinase A (TrkA) …; test: cell-based or functional assay; remark: listed apart in the source

T1 sequence (P04629 other isoform, or with tags, fused parts or gaps): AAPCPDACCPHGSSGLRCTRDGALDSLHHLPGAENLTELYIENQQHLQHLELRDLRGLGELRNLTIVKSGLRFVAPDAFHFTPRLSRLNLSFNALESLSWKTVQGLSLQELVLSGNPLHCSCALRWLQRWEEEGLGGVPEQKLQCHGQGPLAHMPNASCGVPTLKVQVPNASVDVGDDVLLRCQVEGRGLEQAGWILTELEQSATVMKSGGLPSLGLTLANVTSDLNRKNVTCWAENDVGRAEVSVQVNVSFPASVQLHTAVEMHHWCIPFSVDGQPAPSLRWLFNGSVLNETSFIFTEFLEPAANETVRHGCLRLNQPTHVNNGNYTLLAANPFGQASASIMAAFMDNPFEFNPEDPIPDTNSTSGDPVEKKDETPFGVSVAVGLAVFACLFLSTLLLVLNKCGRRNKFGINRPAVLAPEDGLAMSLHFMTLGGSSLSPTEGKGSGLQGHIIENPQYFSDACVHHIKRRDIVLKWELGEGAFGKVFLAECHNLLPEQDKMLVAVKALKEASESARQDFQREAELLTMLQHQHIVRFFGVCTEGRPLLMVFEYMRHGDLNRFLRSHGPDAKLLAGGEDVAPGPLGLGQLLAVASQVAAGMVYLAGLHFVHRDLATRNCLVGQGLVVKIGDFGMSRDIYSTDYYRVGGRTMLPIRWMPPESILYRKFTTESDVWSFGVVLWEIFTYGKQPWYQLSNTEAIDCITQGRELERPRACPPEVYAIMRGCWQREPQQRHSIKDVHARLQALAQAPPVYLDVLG

EC50 of NGF-K95A/Q96A added to U2OS-TrkA/p75-SHC1 cells for the interaction between TrkA and SHC1 (enzyme fragment complementation, chemiluminescence) [1]: 20 ng/mL | EC50 of NGF-R100E added to U2OS-TrkA/p75-SHC1 cells for the interaction between TrkA and SHC1 (enzyme fragment complementation, chemiluminescence) [1]: 0.56 ng/mL | EC50 of NGF-W99A added to U2OS-TrkA/p75-SHC1 cells for the interaction between TrkA and SHC1 (enzyme fragment complementation, chemiluminescence) [1]: 23 ng/mL | EC50 of wild-type NGF added to U2OS-TrkA/p75-SHC1 cells for the interaction between TrkA and SHC1 (enzyme fragment complementation, chemiluminescence) [1]: 4.2 ng/mL | plateau of the second activation phase at around 10 μg/ml NGF-K95A/Q96A in U2OS-TrkA/p75-SHC1 cells, relative to wild-type NGF (interaction between TrkA and SHC1, enzyme fragment complementation) [2]: ~300% | second activation phase EC50 of NGF-K95A/Q96A in U2OS-TrkA/p75-SHC1 cells (interaction between TrkA and SHC1, enzyme fragment complementation) [2]: ~3 µg/mL
B1: Src homology 2 domain containing transforming protein 1 (SHC1) (natural protein, UniProt P29353 1-583, looked up)
chain: MDLLPPKPKYNPLRNESLSSLEEGASGSTPPEELPSPSASSLGPILPPLPGDDSPTTLCSFFPRMSNLRLANPAGGRPGSKGEPGRAADDGEGIVGAAMPDSGPLPLLQDMNKLSGGGGRRTRVEGGQLGGEEWTRHGSFVNKPTRGWLHPNDKVMGPGVSYLVRYMGCVEVLQSMRALDFNTRTQVTREAISLVCEAVPGAKGATRRRKPCSRPLSSILGRSNLKFAGMPITLTVSTSSLNLMAADCKQIIANHHMQSISFASGGDPDTAEYVAYVAKDPVNQRACHILECPEGLAQDVISTIGQAFELRFKQYLRNPPKLVTPHDRMAGFDGSAWDEEEEEPPDHQYYNDFPGKEPPLGGVVDMRLREGAAPGAARPTAPNAQTPSHLGATLPVGQPVGGDPEVRKQMPPPPPCPGRELFDDPSYVNVQNLDKARQAVGGAGPPNPAINGSAPRDLFDMKPFEDALRVPPPPQSVSMAEQLRGEPWFHGKLSRREAEALLQLNGDFLVRESTTTPGQYVLTGLQSGQPKHLLLVDPEGVVRTKDHRFESVSHLISYHMDNHLPIISAGSELCLQQPVERKL
